# Results: the Human Domainome abundance scans (Beltran et al. 2025)
# ± gives the uncertainty stated by the source.
# B1: Activity-dependent neuroprotector homeobox protein, residues 770 to 810; numbered along this chain, Q9H2P0 (parent)
# chain: FLTKYFNKQPYPTRREIEKLAASLWLWKSDIASHFSNKRKK
# Variants of: B1
# Assay: abundance fitness (aPCA) (normalised: wild type 0, dead -1); higher = more abundant; growth selection in yeast, the domain comes from the species named
# Details: Homo sapiens
row,Variant,abundance fitness
1,FLTKYFNKQPYPTRREIEKLAASLWLWKSDIASHFSIKRKK,0.028 ± 0.099
2,FLTKYFNKQPYKTRREIEKLAASLWLWKSDIASHFSNKRKK,0.062 ± 0.21
3,FLTKYFNKQPYPTRREIEKLAASLWLWISDIASHFSNKRKK,0.445 ± 0.055
4,FLTKYFNKQPYPTWREIEKLAASLWLWKSDIASHFSNKRKK,-0.262 ± 0.12
5,FLTKYFNKQPYPTRREIEKLAASRWLWKSDIASHFSNKRKK,-0.339 ± 0.062
6,FLTKYFNKQPYPTRREIEKLAASLWLWKSDIASHFTNKRKK,0.059 ± 0.067
7,FLTKYFNKQPYPTRAEIEKLAASLWLWKSDIASHFSNKRKK,0.116 ± 0.052
8,FLTKYFNKQPYPTRREIEKLAASLWLWLSDIASHFSNKRKK,0.55 ± 0.048
9,FLTKYFNKQPYRTRREIEKLAASLWLWKSDIASHFSNKRKK,-0.128 ± 0.061
10,FLTKYFNKQPYPTRREIEKLAASLWLWKSDIASHFFNKRKK,-0.055 ± 0.095
11,FLTKYFNKQPYPTRREPEKLAASLWLWKSDIASHFSNKRKK,-0.296 ± 0.066
12,FLTKPFNKQPYPTRREIEKLAASLWLWKSDIASHFSNKRKK,-0.526 ± 0.23
13,FLTKYFNKCPYPTRREIEKLAASLWLWKSDIASHFSNKRKK,-0.014 ± 0.063
14,FLTKYFNKQPYPTRREIEKLAASLWLWKSDIASHFSNKRKD,-0.015 ± 0.097
15,FLTKYFNKQPYPTRREIEKLAASLWLWKSDIASHFSNKIKK,-0.035 ± 0.076
16,FLTKYFNKQPYPTRREIEKLAASLWLWKSDIASHFSNKREK,-0.278 ± 0.14
17,FLTKYFNKQPYPTRREIEKLAASLWLWKSDIASAFSNKRKK,0.006 ± 0.047
18,FLTKYFNKQPYPTRREIEKLAASLWQWKSDIASHFSNKRKK,0.122 ± 0.085
19,FLTKYFNKQPYPTRREIKKLAASLWLWKSDIASHFSNKRKK,0.172 ± 0.062
20,FLTKYFNKQPYPTRRHIEKLAASLWLWKSDIASHFSNKRKK,-0.133 ± 0.086

row,Variant,abundance fitness
1,FLTKYFNKQPYMTRREIEKLAASLWLWKSDIASHFSNKRKK,-0.114 ± 0.13
2,FLTKYFNKQPYPTRREIEKLAASLWLWKSDIASHFKNKRKK,0.051 ± 0.08
3,FLTKYFNKQPYPTRREIEKLAASLWLWKSDIASHFSNKRKW,0.259 ± 0.24
4,FLTKYFNKQPYPTRREIEKLAASLTLWKSDIASHFSNKRKK,0.141 ± 0.054
5,FLTKYFNKQPYPTRREIEKLAASLALWKSDIASHFSNKRKK,0.064 ± 0.065
6,FLTKYFNKQPYPTRREIEKAAASLWLWKSDIASHFSNKRKK,-0.038 ± 0.066
7,FLTKYFNKQPYPTRREIEKPAASLWLWKSDIASHFSNKRKK,-0.124 ± 0.057
8,FLTKYFNKQPYPTRREIEKLAESLWLWKSDIASHFSNKRKK,-0.162 ± 0.11
9,FLTKYFNKQPYPTRREIEKLAASLWLWKSDIASHFSNKPKK,-0.232 ± 0.053
10,FLTKYFNKQPYPTRREIYKLAASLWLWKSDIASHFSNKRKK,-0.378 ± 0.14
11,FLTKYFNKQPYETRREIEKLAASLWLWKSDIASHFSNKRKK,0.059 ± 0.091
12,FLTKYFNKQPYPTRREIEKLAASLWLWKSDIACHFSNKRKK,-0.058 ± 0.06
13,FLTKYFNKQPYPTRREIEKLAASLWLWKSDIASHFSWKRKK,0.023 ± 0.067
14,FLTKYFNKQPYPTRREIEKLAASLWLPKSDIASHFSNKRKK,-0.398 ± 0.08
15,SLTKYFNKQPYPTRREIEKLAASLWLWKSDIASHFSNKRKK,-0.09 ± 0.25
16,FLTKYFNKQPYPTRREIEKLAASLWLWKSDIASHFSNCRKK,-0.193 ± 0.1
17,FLTKYFNKQPYPTRREIEKLAASLWLNKSDIASHFSNKRKK,-0.295 ± 0.091
18,FLSKYFNKQPYPTRREIEKLAASLWLWKSDIASHFSNKRKK,0.001 ± 0.054
19,FLTKYFNIQPYPTRREIEKLAASLWLWKSDIASHFSNKRKK,-1.43 ± 0.19
20,FLTKYFNKQPYPTRREIEKLAASLWLWKSDIASHFSNKRDK,-0.253 ± 0.089

row,Variant,abundance fitness
1,FLTKYFNKQPYPTRREIEKLAASLWLWKSDIASHFSNKRTK,0.009 ± 0.14
2,FLTKYFNKQPYPTRREIEKLAASLWLWFSDIASHFSNKRKK,0.435 ± 0.06
3,FLTKYFNKQPYPTRREITKLAASLWLWKSDIASHFSNKRKK,-0.176 ± 0.08
4,FLTKYFNKQPYPTRREIEKLAQSLWLWKSDIASHFSNKRKK,0.045 ± 0.065
5,FLTKYFNKYPYPTRREIEKLAASLWLWKSDIASHFSNKRKK,-0.409 ± 0.19
6,FLTKYFNKQPYPTRREIEKLAASAWLWKSDIASHFSNKRKK,-0.026 ± 0.083
7,FLTKYFNKQPYPTRREIEKLAASLWLWKSDIWSHFSNKRKK,0.113 ± 0.091
8,FLTKYFNKQPYPTRCEIEKLAASLWLWKSDIASHFSNKRKK,-0.182 ± 0.089
9,FLTKYFNKQPYPTRREINKLAASLWLWKSDIASHFSNKRKK,-0.213 ± 0.083
10,FLTKYFNKQPYPTRREIEKLAASLWLWKSDDASHFSNKRKK,0.022 ± 0.096
11,FLTKYFNKQPYPTRREIEKLAASLWLMKSDIASHFSNKRKK,-0.031 ± 0.099
12,FLTKYFNKQPYPTRREIEKLAASLWLWKSDIASHFSNKRFK,-0.098 ± 0.082
13,FLTKYFNKQPIPTRREIEKLAASLWLWKSDIASHFSNKRKK,0.05 ± 0.087
14,FLTKYFNKQPCPTRREIEKLAASLWLWKSDIASHFSNKRKK,0.086 ± 0.3
15,FLTKYFNKQPYPTRREIEKLAASLWLVKSDIASHFSNKRKK,-0.061 ± 0.052
16,FLTKYFNKQPYPTRREIEKLAASLWSWKSDIASHFSNKRKK,0.033 ± 0.051
17,FLTKYFNCQPYPTRREIEKLAASLWLWKSDIASHFSNKRKK,-1.11 ± 0.24
18,FLTKYFNKQPYPTRREMEKLAASLWLWKSDIASHFSNKRKK,0.239 ± 0.087
19,FLTKYFNKQPYPTRREIEFLAASLWLWKSDIASHFSNKRKK,-0.944 ± 0.14
